Earlier results on one substance are cited in publication PMC4407497.

The target in data set [1] is IL-22R1 (Homo sapiens) (UniProt Q8N6P7).
The target of data set [2] is IL-22BP (Homo sapiens) (UniProt Q969J5).
Sequence of UniProt Q969J5 (Q969J5 22-263): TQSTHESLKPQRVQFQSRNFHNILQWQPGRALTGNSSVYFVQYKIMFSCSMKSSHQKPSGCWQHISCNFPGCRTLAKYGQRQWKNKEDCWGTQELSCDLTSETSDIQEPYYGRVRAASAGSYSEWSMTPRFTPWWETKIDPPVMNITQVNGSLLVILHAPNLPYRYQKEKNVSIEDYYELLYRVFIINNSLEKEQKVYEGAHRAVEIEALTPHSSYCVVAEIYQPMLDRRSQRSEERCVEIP

Sequence of UniProt Q8N6P7 (Q8N6P7 16-228): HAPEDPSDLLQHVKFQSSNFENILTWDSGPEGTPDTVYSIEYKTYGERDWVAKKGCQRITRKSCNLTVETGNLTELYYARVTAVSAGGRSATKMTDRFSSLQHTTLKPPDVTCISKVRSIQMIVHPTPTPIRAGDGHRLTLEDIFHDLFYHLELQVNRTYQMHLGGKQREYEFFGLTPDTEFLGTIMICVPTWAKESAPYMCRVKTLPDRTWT

The Kd is a measure of binding affinity in units of concentration. Turning to IL-22 (from UniProt Q9GZX6), the Kd is 20 nM in data set [1] and 0.001 nM in data set [2].
